Reference: US20140087995A1 (published 2014)
Changes are numbered by the printed parent chain. Numbered stars: 1 amine (or outer) side, 2 acyl side, 3 side chain; on linkers, the order of the positions; unused ones are H or OH. Bridge positions count the residues as written; N and C are the ends. Side chains are listed from the residue outwards. Ends that are not written are not given here. * marks the point of attachment. C20 diacid = O=C(O)CCCCCCCCCCCCCCCCCCC(=O)*; γGlu = O=C(O)[C@H](CCC(=O)[*:2])N[*:1]; AEEA = NCCOCCOCC(=O)O

T1: rat calcitonin receptor (rat, UniProt P32214 25-516)
T1 construct: whole, on cells; membranes of transiently transfected BHK tk'ts 13 cells (Assay VIII); also called rCTR; rat calcitonin (a) receptor
T1 sequence (looked up): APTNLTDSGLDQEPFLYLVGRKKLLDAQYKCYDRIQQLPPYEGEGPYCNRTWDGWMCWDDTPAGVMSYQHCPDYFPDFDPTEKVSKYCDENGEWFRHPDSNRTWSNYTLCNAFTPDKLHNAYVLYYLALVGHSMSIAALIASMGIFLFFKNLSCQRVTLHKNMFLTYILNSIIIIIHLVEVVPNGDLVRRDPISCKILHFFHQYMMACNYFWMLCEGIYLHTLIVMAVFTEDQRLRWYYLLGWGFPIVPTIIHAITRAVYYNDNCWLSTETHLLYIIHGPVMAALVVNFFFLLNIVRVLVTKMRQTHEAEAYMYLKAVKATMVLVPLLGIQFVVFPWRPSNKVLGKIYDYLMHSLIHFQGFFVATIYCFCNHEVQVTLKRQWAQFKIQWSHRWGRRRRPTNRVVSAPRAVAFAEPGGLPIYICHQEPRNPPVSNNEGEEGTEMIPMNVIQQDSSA

T2: human calcitonin receptor (human, UniProt P30988 25-474)
T2 construct: whole, on cells; membranes of stably transfected BHK cells (Assay VII); also called hCTR; hCT
T2 sequence (looked up): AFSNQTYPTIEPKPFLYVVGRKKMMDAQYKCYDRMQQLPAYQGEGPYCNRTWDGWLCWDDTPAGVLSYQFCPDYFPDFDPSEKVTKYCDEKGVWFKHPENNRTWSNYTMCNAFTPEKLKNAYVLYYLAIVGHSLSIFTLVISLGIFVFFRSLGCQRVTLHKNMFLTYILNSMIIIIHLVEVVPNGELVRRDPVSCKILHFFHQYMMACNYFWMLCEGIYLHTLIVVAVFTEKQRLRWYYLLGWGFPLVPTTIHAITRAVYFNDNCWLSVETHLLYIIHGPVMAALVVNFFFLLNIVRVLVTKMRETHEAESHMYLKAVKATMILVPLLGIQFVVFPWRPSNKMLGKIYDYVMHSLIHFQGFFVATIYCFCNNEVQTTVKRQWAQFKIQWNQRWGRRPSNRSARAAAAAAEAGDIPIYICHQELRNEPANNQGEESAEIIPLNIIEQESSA

T3: rat amylin receptor (rat calcitonin receptor + rat RAMP 3) (rat, UniProt P32214 25-516; Q9JJ73 23-147)
T3 construct: whole, on cells; membranes of transiently transfected BHK tk'ts 13 cells (Assay VI); also called rAmylin-R; rat amylin 3(a) receptor
T3 sequence (looked up) 1: T1 sequence (looked up)
T3 sequence (looked up) 2: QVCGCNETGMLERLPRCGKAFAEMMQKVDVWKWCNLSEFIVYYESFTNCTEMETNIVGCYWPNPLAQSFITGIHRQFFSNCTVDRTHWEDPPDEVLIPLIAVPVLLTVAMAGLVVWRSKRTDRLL

B1: N^α1-[2-[2-[2-[[2-[2-[2-[[(4S)-4-carboxy-4-(19-carboxynonadecanoylamino)butanoyl]amino]ethoxy]ethoxy]acetyl]amino]ethoxy]ethoxy]acetyl]-[Glu14,Arg17,Pro21,Pro27 … (peptide)
peptide: KCNTATCATQRLAEFLRHSSPNFGAIPSSTNVGSNTY
modifications: C20 diacid-gGlu-2xOEG on the alpha amino group of the N-terminal residue (Lys 1); disulfide bridge between the two Cys residues; C-terminal amide
notes: analogue of human amylin; also called compound 19
B2: N^α1N^α1-[(4S)-4-carboxy-4-(19-carboxynonadecanoylamino)butanoyl]-[Glu14,Arg17,Pro21,Pro27,Glu35]-h-amylin (peptide)
peptide: {C20 diacid-γGlu}-KCNTATCATQRLAEFLRHSSPNFGAIPSSTNVGSETY-NH2
modifications: disulfide 2-7 (inferred)
notes: analogue of human amylin; the name is printed with N^α1 twice; also called compound 22
B3: N^α1-[(4S)-4-carboxy-4-(19-carboxynonadecanoylamino)butanoyl]-[Arg17,Pro21,Pro27,His34]-h-amylin (peptide)
peptide: B1 peptide with E14N, S34H
modifications: C20 diacid-gGlu on the alpha amino group of the N-terminal residue (Lys 1); disulfide bridge between the two Cys residues; C-terminal amide
notes: analogue of human amylin; also called compound 40
B4: N^α1-[(4S)-4-carboxy-4-(19-carboxynonadecanoylamino)butanoyl]-[Arg17,Pro21,Pro27,Glu35]-h-amylin (peptide)
peptide: B1 peptide with E14N, N35E
modifications: C20 diacid-gGlu on the alpha amino group of the N-terminal residue (Lys 1); disulfide bridge between the two Cys residues; C-terminal amide
notes: analogue of human amylin; also called compound 23
B5: N^ε1-[2-[2-[2-[[(4S)-4-carboxy-4-(19-carboxynonadecanoylamino)butanoyl]amino]ethoxy]ethoxy]acetyl]-[Arg17,Pro21,Pro27,Glu35]-h-amylin (peptide)
peptide: K([AEEA-γGlu-C20 diacid])CNTATCATQRLANFLRHSSPNFGAIPSSTNVGSETY-NH2
modifications: disulfide 2-7 (inferred)
notes: analogue of human amylin; also called compound 26
B6: N^α1-[(4S)-4-carboxy-4-(19-carboxynonadecanoylamino)butanoyl]-[Arg17,Pro21,Pro27,Pro34,Glu35]-h-amylin (peptide)
peptide: {C20 diacid-γGlu}-KCNTATCATQRLANFLRHSSPNFGAIPSSTNVGPETY-NH2
modifications: disulfide 2-7 (inferred)
notes: analogue of human amylin; also called compound 29
B7: N^α1-[(4S)-4-carboxy-4-(19-carboxynonadecanoylamino)butanoyl]-[Glu14,Arg17,Pro21,Pro27,His34]-h-amylin (peptide)
peptide: {C20 diacid-γGlu}-KCNTATCATQRLAEFLRHSSPNFGAIPSSTNVGHNTY-NH2
modifications: disulfide 2-7 (inferred)
notes: analogue of human amylin; also called compound 17
B8: N^α1-[(4S)-4-carboxy-4-(19-carboxynonadecanoylamino)butanoyl]-[Glu14,Arg17,Pro21,Pro27,Pro34]-h-amylin (peptide)
peptide: {C20 diacid-γGlu}-KCNTATCATQRLAEFLRHSSPNFGAIPSSTNVGPNTY-NH2
modifications: disulfide 2-7 (inferred)
notes: analogue of human amylin; also called compound 32
B9: N^ε1-[2-[2-[2-[[2-[2-[2-[[(4S)-4-carboxy-4-(19-carboxynonadecanoylamino)butanoyl]amino]ethoxy]ethoxy]acetyl]amino]ethoxy]ethoxy]acetyl]-[Arg17,Pro21,Pro27,Glu35 … (peptide)
peptide: K([AEEA-AEEA-γGlu-C20 diacid])CNTATCATQRLANFLRHSSPNFGAIPSSTNVGSETY-NH2
modifications: disulfide 2-7 (inferred)
notes: analogue of human amylin; also called compound 25
B10: N^α1-[(4S)-4-carboxy-4-(19-carboxynonadecanoylamino)butanoyl]-[Arg17,Pro21,Pro27,Pro31,Glu35]-h-amylin (peptide)
peptide: {C20 diacid-γGlu}-KCNTATCATQRLANFLRHSSPNFGAIPSSTPVGSETY-NH2
modifications: disulfide 2-7 (inferred)
notes: analogue of human amylin; also called compound 28

Target: T1, rat calcitonin receptor
Experiment: IC50 on rat calcitonin receptor divided by IC50 on rat amylin receptor (SPA competition)

Ratio rCT/rAmylin binding | Binder
93.6 | B1
28.5 | B2
46.2 | B3
71.3 | B4
309 | B5
67 | B6
35.9 | B7
34 | B8
37.7 | B9
44.9 | B10

Target: T2, human calcitonin receptor
Experiment: IC50 on human calcitonin receptor divided by IC50 on human amylin receptor (SPA competition)
Protocol: The resulting pellet was resuspended, homogenized and centrifuged (20.000 rpm, 15 min) in a buffer containing 20 mM Na-HEPES and 0.1 mM EDTA (pH 7.4, buffer 2). The resulting pellet was resuspended in buffer 2 and protein concentration was measured (BCA protein Assay, Pierce). The homogenate was kept cold during the whole procedure. The membranes were kept at −80° C. until use. The assay was performed in a 384 well Optiplate (PerkinElmer) in a total volume of 40 ul. Membranes were mixed with SPA beads. Final concentration of membranes 35 ng/μL final and SPA beads was 0.05 mg/well. Test-compounds were dissolved in DMSO and further diluted in assay buffer (50 mM Hepes, pH 7.4, 1 mM CaCl2, 5 mM MgCl₂, 0.1% OA and 0.02% Tween20). […] The final mixture was incubated with shaking at 400 rpm for 120 min at 25° C. prior to centrifugation (1500 rpm, 10 min). Samples were analyzed on TopCounter™ (Packard). The IC₅₀ was calculated using (one site binding competition analysis) GraphPad Prism5 as a measure of receptor affinity.
Membranes were prepared in the following way; the cells were rinsed with PBS and incubated with Versene for approximately 5 min before harvesting. The cells were flushed with PBS and the cell-suspension was centrifuged for 5 min at 1000 rpm. Cells were homogenized (Ultrathurrax) in a buffer containing 20 mM Na-HEPES and 10 mM EDTA (pH 7.4) and centrifuged at 20.000 rpm for 15 min. The resulting pellet was resuspended, homogenized and centrifuged (20.000 rpm, 15 min) in a buffer containing 20 mM Na-HEPES and 0.1 mM EDTA (pH 7.4, buffer 2). The resulting pellet was resuspended in buffer 2 and protein concentration was measured (BCA protein Assay, Pierce). The homogenate was kept cold during the whole procedure. The membranes were kept at −80° C. until use. Assay was performed in a 384 well Optiplate (PerkinElmer) in a total volume of 40 ul. Membranes were mixed with SPA beads.

Ratio hCT/hAmylin binding | Binder
36.7 | B1
12.3 | B2
31.1 | B3
25 | B4
47.5 | B5
13.9 | B6
12.5 | B7
10.9 | B8
56.5 | B9
20.5 | B10

Target: T1, rat calcitonin receptor
Experiment: SPA competition with 125I-calcitonin, membranes of BHK cells with rat calcitonin receptor (Assay VIII)

IC50 [nM] | Binder
95.6 | B1
62.5 | B2
69.2 | B3
79.9 | B4
152 | B5
21.6 | B6
97.2 | B7
5.98 | B8
131 | B9
54.9 | B10

Target: T3, rat amylin receptor (rat calcitonin …)
Experiment: SPA competition with 125I-rat amylin, membranes of BHK cells with rat calcitonin receptor + rat RAMP3 (Assay VI)

IC50 [nM] | Binder
1.02 | B1
2.19 | B2
1.5 | B3
1.12 | B4
0.491 | B5
0.322 | B6
2.71 | B7
0.176 | B8
3.48 | B9
1.22 | B10
